This passage reports peptide exchange yield results from US20220098269A1 (IMMATICS BIOTECHNOLOGIES, published 2022).

The target in the first test is T1, HLA-A*01:01 (human).
T1 construct: Peptide-receptive MHC class I monomer after UV cleavage of a UV-sensitive ligand; captured on streptavidin plates, detected with anti-b2m
In words: UV-ligand exchange, anti-b2m ELISA; peptide exchange yield grade. The source says:
(§1) Candidate peptides for T cell based therapies according to the present invention were further tested for their MHC binding capacity (affinity). The individual peptide-MHC complexes were produced by UV-ligand exchange, where a UV-sensitive peptide is cleaved upon UV-irradiation and exchanged with the peptide of interest as analyzed. Only peptide candidates that can effectively bind and stabilize the peptide-receptive MHC molecules prevent dissociation of the MHC complexes. To determine the yield of the exchange reaction, an ELISA was performed based on the detection of the light chain (β2m) of stabilized MHC complexes. The assay was performed as generally described in Rodenko et al. (Rodenko et al., 2006).
(§2) 96 well MAXISorp plates (NUNC) were coated over night with 2 μg/ml streptavidin in PBS at room temperature, washed 4× and blocked for 1h at 37° C. in 2% BSA containing blocking buffer. Refolded HLA-A*02:01/MLA-001 monomers served as standards, covering the range of 15-500 ng/ml. Peptide-MHC monomers of the UV-exchange reaction were diluted 100-fold in blocking buffer. Samples were incubated for 1 h at 37° C., washed four times, incubated with 2 μg/ml HRP conjugated anti-β2m for 1h at 37° C., washed again and detected with TMB solution that is stopped with […]. Absorption was measured at 450 nm. Candidate peptides that show a high exchange yield (preferably higher than 50%, most preferred higher than 75%) are generally preferred for a generation and production of antibodies or fragments thereof, and/or T cell receptors or fragments thereof, as they show sufficient avidity to the MHC molecules and prevent dissociation of the MHC complexes.
VTRDDTASY registered a peptide exchange yield of 20 to 50%.

HVDNSNLNY showed a peptide exchange yield of at least 75%.

Molecule ITDDTVQTY displayed a peptide exchange yield of at least 75%.

For the molecule YIDDVTLI, the peptide exchange yield was 20 to 50%.

QVDGSLLVI showed a peptide exchange yield of 20 to 50%.

In turn, GQYDDSLQAY had a peptide exchange yield of 20 to 50%.

Consider ILFSDSTRLSF, for which the peptide exchange yield lay in the range of 50 to 75%.

EVQDHSTSSY yielded a peptide exchange yield of 20 to 50%.

As for MTDVDRDGTTAY, the peptide exchange yield is at least 75%.

GVDDTSLLY displayed a peptide exchange yield of at least 75%.

Regarding TSDTSQYDTY, the peptide exchange yield was in the range of 50 to 75%.

GTDQTGKGLEY gave a peptide exchange yield of 50 to 75%.

Molecule YSIDVTNVM had a peptide exchange yield of 50 to 75%.

In turn, RSLDCTVKTY returned a peptide exchange yield of 50 to 75%.

In the case of WSDWSNPAY, the peptide exchange yield is at least 75%.

With EVEGVIDGTYDY, the peptide exchange yield was at least 75%.

In turn, ILPDITTTY yielded a peptide exchange yield of 20 to 50%.

Molecule NHITDTSLNLF showed a peptide exchange yield of 20 to 50%.

As for VTQDDTGFY, the peptide exchange yield is at least 75%.

Consider WLDRSTILY, for which the peptide exchange yield was at least 75%.

As to TFVDASRTLY, the peptide exchange yield is at least 75%.

As for PSDLSVFTSY, the peptide exchange yield is at least 75%.

Regarding ITDTSLNLF, the peptide exchange yield is at least 75%.

Molecule FTDTSSYEY yielded a peptide exchange yield of at least 75%.

For the molecule RVDDITDQF, the peptide exchange yield lay in the range of 20 to 50%.

In turn, HVSDVTVNY had a peptide exchange yield of 20 to 50%.

For the molecule LTNDQTLRL, the peptide exchange yield fell in the range of 50 to 75%.

With TANYDTSHY, the peptide exchange yield lay within 20 to 50%.

Molecule GTDKQDSTLRY showed a peptide exchange yield of at least 75%.

As for LTEVEKDATALY, the peptide exchange yield was at least 75%.

In turn, HADLTTLTF returned a peptide exchange yield of 20 to 50%.

Consider ISDITEKNSGLY, for which the peptide exchange yield was at least 75%.

As for LSDLTCNNY, the peptide exchange yield was at least 75%.

On to ISDGMDSSAHY, for which the peptide exchange yield was at least 75%.

The molecule FTDLITDESINY showed a peptide exchange yield of at least 75%.

Molecule LSDLSLADI registered a peptide exchange yield of 20 to 50%.

PSDGSMHNY displayed a peptide exchange yield of at least 75%.

VTDVTEEHY showed a peptide exchange yield of at least 75%.

With HVKDATMGY, the peptide exchange yield is 50 to 75%.

Regarding RSIDVTGQGF, the peptide exchange yield was 20 to 50%.

Turning to VTETMGIDGSAY, the peptide exchange yield is at least 75%.

For another test, the target named is T2, HLA-A*24:02 (human).
T2 construct: Peptide-receptive MHC class I monomer after UV cleavage of a UV-sensitive ligand
Described as above.
Excerpt: as §1, §2
VFHDHTYHL came in with a peptide exchange yield of at least 75%.

In turn, FYDLSIQSF yielded a peptide exchange yield of at least 75%.

The molecule QYQDTTVSF had a peptide exchange yield of 50 to 75%.

Molecule KLTDNSNQF returned a peptide exchange yield of 20 to 50%.

Turning to IYPDASLLIQNI, the peptide exchange yield is at least 75%.

GYIDDVTLI: the peptide exchange yield fell in the range of 50 to 75%.

The molecule FFQDSTFSF gave a peptide exchange yield of at least 75%.

FHYDDTAGYF displayed a peptide exchange yield of 10 to 20%.

In turn, IYLDRTLLTTI gave a peptide exchange yield of at least 75%.

The molecule VHDFTLPSW had a peptide exchange yield of 20 to 50%.

The molecule FYDNSVIIF gave a peptide exchange yield of 20 to 50%.

IFDETGRF had a peptide exchange yield of 20 to 50%.

For YFVDVTTRI, the peptide exchange yield fell in the range of 50 to 75%.

In the case of NYLLYVSDF, the peptide exchange yield is at least 75%.

Consider IYNFRLWDF, for which the peptide exchange yield is at least 75%.

Regarding VYTDISHHF, the peptide exchange yield was at least 75%.

Consider SYDETKIKF, for which the peptide exchange yield lay in the range of 10 to 20%.

FFTDKTLSF: the peptide exchange yield is at least 75%.

The molecule YWDETLKEF came in with a peptide exchange yield of 50 to 75%.
